# PMC6076860 (Analytical biochemistry, 2018)
# B1: PCD αβ dimer (protomer of the protocatechuate 3,4-dioxygenase holoenzyme complex) from Pseudomonas putida (complex)
# chain 1: MPIELLPETPSQTAGPYVHIGLALEAAGNPTRDQEIWNRLAKPDAPGEHILLLGQVYDGNGHLVRDSFLEVWQADANGEYQDAYNLENAFNSFGRTATTFDAGEWTLHTVKPGVVNNAAGVPMAPHINISLFARGINIHLHTRLYFDDEAQANAKCPVLNLIEQPQRRETLIAKRCEVDGKTAYRFDIRIQGEGETVFFDF
# chain 2: MPAQDNSRFVIRDRNWHPKALTPDYKTSIARSPRQALVSIPQSISETTGPNFSHLGFGAHDHDLLLNFNNGGLPIGERIIVAGRVVDQYGKPVPNTLVEMWQANAGGRYRHKNDRYLAPLDPNFGGVGRCLTDSDGYYSFRTIKPGPYPWRNGPNDWRPAHIHFGISGPSIATKLITQLYFEGDPLIPMCPIVKSIANPEAVQQLIAKLDMNNANPMDCLAYRFDIVLRGQRKTHFENC
# Target: the molecule itself
# Test: SEC
protein,measurement,value
B1,binding result,binds
